# Results: the Immune Epitope Database (IEDB)
# Assays:
# [1] = biological target: HLA-B*18:01; test: IEDB peptide-MHC binding, purified MHC/competitive/fluorescence; filed as Kd, often an IC50 or EC50 that approximates it; ≥ and ≤ were set here for values at or beyond the usual limits of such assays
# [2] = biological target: HLA-B*39:01; test: as above
# [3] = biological target: HLA-B*46:01; test: as above
# [4] = biological target: HLA-B*27:03; test: as above
# [5] = biological target: HLA-B*51:01; test: as above
# [6] = biological target: HLA-A*26:01; test: as above
# [7] = biological target: HLA-B*57:01; test: as above
# [8] = biological target: HLA-A*69:01; test: as above
# [9] = biological target: HLA-B*15:01; test: as above
# [10] = biological target: HLA-B*15:17; test: as above; details: source organism: Zaire ebolavirus
# [11] = biological target: HLA-A*02:01; test: as above
# [12] = biological target: HLA-A*02:16; test: IEDB peptide-MHC binding, purified MHC/direct/fluorescence; filed as Kd, often an IC50 or EC50 that approximates it; ≥ and ≤ were set here for values at or beyond the usual limits of such assays
# [13] = biological target: HLA-A*02:11; test: as above; details: source organism: Zaire ebolavirus
# [14] = biological target: HLA-A*68:02; test: as above
# [15] = biological target: HLA-A*02:12; test: as above
# [16] = biological target: HLA-B*40:01; test: as above; details: source organism: Sudan ebolavirus - Uganda (2000)
# [17] = biological target: HLA-A*02:19; test: as above
# [18] = biological target: HLA-A*24:03; test: as above; details: source organism: Zaire ebolavirus
# [19] = biological target: HLA-A*02:03; test: as above
# [20] = biological target: HLA-A*03:01; test: as above; details: source organism: Zaire ebolavirus
# [21] = biological target: HLA-B*07:02; test: IEDB peptide-MHC binding, purified MHC/competitive/fluorescence; ≥ and ≤ were set here for values at or beyond the usual limits of such assays
# [22] = biological target: HLA-A*24:02; test: as above
# [23] = biological target: HLA-A*02:01; test: as above; details: source organism: Zaire ebolavirus
# [24] = biological target: HLA-A*29:02; test: IEDB peptide-MHC binding, purified MHC/competitive/fluorescence; filed as Kd, often an IC50 or EC50 that approximates it; ≥ and ≤ were set here for values at or beyond the usual limits of such assays
# [25] = biological target: HLA-A*02:12; test: as above; details: source organism: Listeria monocytogenes EGD-e
# [26] = biological target: HLA-A*03:01; test: as above
# [27] = biological target: HLA-A*31:01; test: as above; details: source organism: Orthohantavirus sinnombreense
# [28] = biological target: HLA-A*29:02; test: IEDB peptide-MHC binding, purified MHC/direct/fluorescence; filed as Kd, often an IC50 or EC50 that approximates it; ≥ and ≤ were set here for values at or beyond the usual limits of such assays; details: source organism: Limestone Canyon virus
# [29] = source organism: Zaire ebolavirus
# [30] = source organism: Sudan ebolavirus
# [31] = source organism: Listeria monocytogenes EGD-e
# [32] = source organism: Orthohantavirus sinnombreense
# [33] = source organism: Limestone Canyon virus
sequence,measurement,setting,value
LESLTDREL,Kd,[1]; [29],≥ 20 µM
same,Kd,[2]; [29],≥ 20 µM
same,Kd,[3]; [29],≥ 20 µM
same,Kd,[4]; [29],≥ 20 µM
same,Kd,[5]; [29],≥ 20 µM
same,Kd,[6]; [29],≥ 20 µM
same,Kd,[7]; [29],≥ 20 µM
same,Kd,[8]; [29],≥ 20 µM
same,Kd,[9]; [29],≥ 20 µM
same,Kd,[10],≥ 20 µM
same,Kd,[11]; [29],≥ 20 µM
same,Kd,[12]; [29],≥ 20 µM
same,Kd,[13],≥ 20 µM
same,Kd,[14]; [29],≥ 20 µM
same,Kd,[15]; [29],≥ 20 µM
same,Kd,[16],0.118 µM
same,Kd,[17]; [29],≥ 20 µM
same,Kd,[18],≥ 20 µM
same,Kd,[19]; [29],≥ 20 µM
same,Kd,[20],≥ 20 µM
TGFGTNETE,IC50,[21]; [29],≥ 221 µM
RPHTPQFLF,IC50,[22]; [30],1.03 µM
same,IC50,[21]; [30],1.46 µM
TSPRMLTPI,IC50,[22]; [29],3.05 µM
same,IC50,[21]; [29],≥ 260 µM
same,IC50,[23],≥ 684 µM
VVIPTAALQ,Kd,[24]; source organism: Escherichia coli HS,0.744 µM
LAIVTTPLV,Kd,[1]; [31],≥ 20 µM
same,Kd,[2]; [31],≥ 20 µM
same,Kd,[3]; [31],≥ 20 µM
same,Kd,[24]; [31],≥ 20 µM
same,Kd,[4]; [31],≥ 20 µM
same,Kd,[6]; [31],≥ 20 µM
same,Kd,[7]; [31],≥ 20 µM
same,Kd,[25],0.144 µM
same,Kd,[9]; [31],≥ 20 µM
same,Kd,[11]; [31],0.0272 µM
same,Kd,[26]; [31],≥ 20 µM
RTLGVFRYK,Kd,[1]; [32],≥ 20 µM
same,Kd,[2]; [32],≥ 20 µM
same,Kd,[3]; [32],≥ 20 µM
same,Kd,[27],0.0062 µM
same,Kd,[5]; [32],≥ 20 µM
same,Kd,[6]; [32],≥ 20 µM
same,Kd,[8]; [32],≥ 20 µM
same,Kd,[9]; [32],≥ 20 µM
same,Kd,[26]; [32],0.109 µM
same,Kd,[12]; [33],≥ 20 µM
same,Kd,[28],≥ 20 µM
same,Kd,[14]; [33],≥ 20 µM
same,Kd,[15]; [33],≥ 20 µM
same,Kd,[17]; [33],≥ 20 µM
same,Kd,[19]; [33],≥ 20 µM
